Assay results taken from PMC5131357, “Biochemical and Structural Analysis of a Novel Esterase from Caulobacter crescentus related to Penicillin-Binding Protein (PBP)” (Scientific Reports, 2016).

Key:
Test in all cases: purified protein
[1] = system: CC(=O)Oc1ccc([N+](=O)[O-])cc1; conditions: 20 mM Tris-HCl pH 8.0, RT, 40 nM enzyme
[2] = system: O=C(Cc1cccs1)N[C@@H]1C(=O)N2C(C(=O)O)=C(/C=C/c3ccc([N+](=O)[O-])cc3[N+](=O)[O-])CS[C@H]12; conditions: 20 mM Tris-HCl pH 8.0, RT, 15 μM enzyme
[3] = system: CCCCCCCC(=O)Oc1ccc([N+](=O)[O-])cc1; conditions: 20 mM Tris-HCl pH 8.0, RT, 40 nM enzyme

CcEstA (Caulobacter vibrioides NA1000)
Km [1]: 51.9 ± 2.44 µM | kcat [1]: 15.2 ± 2.19 s⁻¹ | Km [2]: 1348 µM | kcat [2]: 0.00807 s⁻¹ | Km [3]: 43.4 ± 3.15 µM | kcat [3]: 4.03 ± 0.29 s⁻¹
